The experiment concerns the target T1, CCK2R on AR42J cells (UniProt P30553 1-452, limits assumed).
T1 construct: whole, on cells
T1 sequence (looked up): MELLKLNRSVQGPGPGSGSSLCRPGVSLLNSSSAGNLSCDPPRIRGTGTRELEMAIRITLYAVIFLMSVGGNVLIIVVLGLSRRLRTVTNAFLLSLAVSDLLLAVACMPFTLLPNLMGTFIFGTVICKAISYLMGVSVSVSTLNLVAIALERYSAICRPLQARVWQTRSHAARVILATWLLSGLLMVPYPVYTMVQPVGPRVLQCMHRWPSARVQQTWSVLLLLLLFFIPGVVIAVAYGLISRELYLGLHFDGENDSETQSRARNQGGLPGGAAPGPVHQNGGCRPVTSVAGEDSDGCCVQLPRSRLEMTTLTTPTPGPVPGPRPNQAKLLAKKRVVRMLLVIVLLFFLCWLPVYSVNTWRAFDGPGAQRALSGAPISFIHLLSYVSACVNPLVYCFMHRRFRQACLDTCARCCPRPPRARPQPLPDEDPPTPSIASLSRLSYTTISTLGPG
Nature of the experiment: displacement of ^125I-BH-CCK8 from AR42J cells.

1 molecule from patent US20080187577A1 (University of Texas, published 2008) can be followed below.

Experimental: For these experiments, AR42J cells were expanded in vitro in 175 mm flasks and grown to subconfluence in the growth medium containing 10% FCS. All binding assays were performed 36-48 h after seeding the cells in culture medium containing 10% FCS and 2% glutamine. Before the start of the binding assays, the cells in culture were washed with Hanks Balanced salt solution (HBSS) (GIBCO) containing 0.1% BSA and 25 mM HEPES (Sigma) and scraped with a rubber policeman into conical tissue culture polystyrene tubes. Cells were centrifuged at 500 g for 5 min and resuspended in HBSS at a concentration of 2×10⁶ cells/ml. Aliquots (˜1.0 ml) of suspended cells in polystyrene tubes were used in the binding assays. […] Binding assays were performed at 37° C. for 30-60 min at pH 6.5 (optimal for binding).
Non-specific binding was determined in the presence of 1000× excess of the non-labeled homologous peptide. At the end of the incubation, the cells were pelleted and washed twice with 1 ml of fresh ice-cold HBSS plus 0.1% BSA. Cell pellets were counted for ¹²⁵I in a gamma counter with ˜70% efficiency for ¹²⁵I.

B1: full-length recombinant human PG1-80 (rhPG) (ligand)
chain: SWKPRSQQPDAPLGTGANRDLELPWLEQQGPASHHRRQLGPQGPPHLVADPSKKQGPWLEEEEEAYGWMDFGRRSAEDEN
notes: Expressed in E. coli from pET32 as a thioredoxin fusion and purified; also called recombinant human progastrin; progastrin
For the molecule B1, the binding result was “no binding”.
